What is called Ki is a dissociation constant, usually derived from enzyme kinetics or from competition with a known ligand. Low values mean a stronger hold on the target, high ones a looser hold on the target.

Drawing on paper PMC3518142, this text covers Buserelin-stimulated inositol phosphate (IP) production in transfected MDA-MB-231 cells, relative to WT GnRHR (% of WT levels), Ki and [125I]-Buserelin binding, percent of WT levels (% of WT levels) for two substances.

Assay [1] addresses GnRHR-DesK191 (human) (UniProt P30968).
For assay [2] the target is unchanged. Kind of assay: radioligand binding; transfected MDA-MB-231 cells in 24-well plates, 90 minutes at room temperature with [125I]-Buserelin in the presence or absence of excess (10 uM) unlabeled Buserelin; cells washed, solubilized and counted; relative affinities given as Ki.
Assay [3] concerns the target endogenous GnRHR of MDA-MB-231 cells (human (endogenous in MDA-MB-231)) (UniProt P30968). The description is as above.
The target in assay [4] is Wild-type gonadotropin-releasing hormone receptor (human) (UniProt P30968). Described as above.

With Buserelin (peptide), the Buserelin-stimulated inositol phosphate (IP) production in transfected MDA-MB-231 cells, relative to WT GnRHR (% of WT levels) with GnRHR-DesK191 (human) [1] amounted to 590. The Ki with GnRHR-DesK191 (human) [2] was found to be 700 nM; in assay [3] it was 1030 nM; in assay [4], 500 nM.

Substance [125I]-Buserelin (peptide) displayed a [125I]-Buserelin binding, percent of WT levels (% of WT levels) in the assay with GnRHR-DesK191 (human) [2] of 139.
